Here are results for one molecule from patent US20240392028A1.

The target in the assay is highest binding amyloid (in vitro). The experiment in a line: calculated from in vitro binding of the antibody to amyloid; method not described.

B1: CAEL-101 antibody having a heavy chain variable domain (VH) as set forth in SEQ ID NO:1 and a light chain variable domain (VL) as set forth in SEQ ID NO:2 (antibody, human IgG1, V domains shown)
VH: QVQLKESGPGLVAPSQSLSITCTVSGFSLSSYGVSWVRQPPGKGLEWLGVIWGDGSTNYHPNLMSRLSISKDISKSQVLFKLNSLQTDDTATYYCVTLDYWGQGTSVTVSS
VL: DVVMTQTPLSLPVSLGDQASISCRSSQSLVHRNGNTYLHWYLQKPGQSPKLLIYKVSNRFSGVPDRFSGSGSGTDFTLKISRVEAEDLGLYFCFQTTYVPNTFGGGTKLEIK
Turning to B1, the Michaelis-Menton EC 90 (calculated) is 36.5 µg/mL.
